target: PDZRN4_1, Q6ZMN7; test: holdup assay; parameters: key: below the threshold = too weak to quantify, mostly under pKd 3.1 to 4; settings: plain residues with an end cap or a label only (N-terminal biotin on a linker: ado-ado)
Sequence (Q6ZMN7 213-318): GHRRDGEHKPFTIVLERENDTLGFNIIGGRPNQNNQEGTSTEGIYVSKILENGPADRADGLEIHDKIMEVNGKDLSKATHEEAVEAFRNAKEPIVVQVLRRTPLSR

Binder | pKd
PASAKGPLGV [CLDN19, Q8N6F1] | below the threshold
QFTLRHWLKV [SLC6A3, Q01959] | below the threshold

target: Inadl_6, Q8NI35; test: holdup assay; parameters: key: below the threshold = too weak to quantify, mostly under pKd 3.1 to 4; settings: plain residues with an end cap or a label only (N-terminal biotin on a linker: ado-ado)
Sequence (Q8NI35 1058-1167): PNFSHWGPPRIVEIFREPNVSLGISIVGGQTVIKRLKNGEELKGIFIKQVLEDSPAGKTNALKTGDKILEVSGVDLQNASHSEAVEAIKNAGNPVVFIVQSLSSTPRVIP

Binder | pKd
PASAKGPLGV [CLDN19, Q8N6F1] | below the threshold
QFTLRHWLKV [SLC6A3, Q01959] | below the threshold

target: DLG4_1, P78352; test: holdup assay; parameters: key: below the threshold = too weak to quantify, mostly under pKd 3.1 to 4; settings: plain residues with an end cap or a label only (N-terminal biotin on a linker: ado-ado)
Sequence (P78352 62-152): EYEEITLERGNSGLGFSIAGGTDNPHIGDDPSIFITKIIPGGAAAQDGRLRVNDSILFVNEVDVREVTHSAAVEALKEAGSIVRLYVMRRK

Binder | pKd
PASAKGPLGV [CLDN19, Q8N6F1] | below the threshold
QFTLRHWLKV [SLC6A3, Q01959] | below the threshold

target: MAGI2_2, Q86UL8; test: holdup assay; parameters: key: below the threshold = too weak to quantify, mostly under pKd 3.1 to 4; settings: plain residues with an end cap or a label only (N-terminal biotin on a linker: ado-ado)
Sequence (Q86UL8 410-522): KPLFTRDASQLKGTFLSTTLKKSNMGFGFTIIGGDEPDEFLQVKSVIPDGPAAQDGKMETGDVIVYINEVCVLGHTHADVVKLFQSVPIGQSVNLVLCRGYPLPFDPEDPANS

Binder | pKd
PASAKGPLGV [CLDN19, Q8N6F1] | below the threshold
QFTLRHWLKV [SLC6A3, Q01959] | 3.68

target: GRIP2_5, Q9C0E4; test: holdup assay; parameters: key: below the threshold = too weak to quantify, mostly under pKd 3.1 to 4; settings: plain residues with an end cap or a label only (N-terminal biotin on a linker: ado-ado)
Sequence (Q9C0E4 544-642): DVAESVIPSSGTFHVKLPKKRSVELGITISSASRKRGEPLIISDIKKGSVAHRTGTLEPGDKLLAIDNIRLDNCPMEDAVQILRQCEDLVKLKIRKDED

Binder | pKd
PASAKGPLGV [CLDN19, Q8N6F1] | below the threshold
QFTLRHWLKV [SLC6A3, Q01959] | below the threshold

target: MAGI2_3, Q86UL8; test: holdup assay; parameters: key: below the threshold = too weak to quantify, mostly under pKd 3.1 to 4; settings: plain residues with an end cap or a label only (N-terminal biotin on a linker: ado-ado)
Sequence (Q86UL8 600-682): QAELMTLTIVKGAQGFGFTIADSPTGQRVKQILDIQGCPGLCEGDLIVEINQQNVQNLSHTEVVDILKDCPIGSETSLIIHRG

Binder | pKd
PASAKGPLGV [CLDN19, Q8N6F1] | below the threshold
QFTLRHWLKV [SLC6A3, Q01959] | below the threshold

target: Inadl_10, Q8NI35; test: holdup assay; parameters: key: below the threshold = too weak to quantify, mostly under pKd 3.1 to 4; settings: plain residues with an end cap or a label only (N-terminal biotin on a linker: ado-ado)
Sequence (Q8NI35 1673-1763): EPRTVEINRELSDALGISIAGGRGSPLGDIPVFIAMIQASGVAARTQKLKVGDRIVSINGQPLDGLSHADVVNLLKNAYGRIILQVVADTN

Binder | pKd
PASAKGPLGV [CLDN19, Q8N6F1] | below the threshold
QFTLRHWLKV [SLC6A3, Q01959] | below the threshold

target: MAGI2_4, Q86UL8; test: holdup assay; parameters: key: below the threshold = too weak to quantify, mostly under pKd 3.1 to 4; settings: plain residues with an end cap or a label only (N-terminal biotin on a linker: ado-ado)
Sequence (Q86UL8 772-865): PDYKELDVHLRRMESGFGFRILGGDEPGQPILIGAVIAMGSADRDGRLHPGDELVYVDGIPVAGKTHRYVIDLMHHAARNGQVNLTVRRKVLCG

Binder | pKd
PASAKGPLGV [CLDN19, Q8N6F1] | below the threshold
QFTLRHWLKV [SLC6A3, Q01959] | 3.5

target: T1, MPDZ_10, O75970; test: holdup assay; parameters: key: below the threshold = too weak to quantify, mostly under pKd 3.1 to 4; settings: plain residues with an end cap or a label only (N-terminal biotin on a linker: ado-ado)
T1 sequence (O75970 1624-1722, limits assumed, looked up): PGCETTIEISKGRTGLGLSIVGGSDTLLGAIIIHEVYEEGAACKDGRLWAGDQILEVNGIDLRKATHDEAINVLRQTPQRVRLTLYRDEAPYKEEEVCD

Binder | pKd
PASAKGPLGV [CLDN19, Q8N6F1] | below the threshold
QFTLRHWLKV [SLC6A3, Q01959] | below the threshold

target: FRMPD2_3, Q68DX3; test: holdup assay; parameters: key: below the threshold = too weak to quantify, mostly under pKd 3.1 to 4; settings: plain residues with an end cap or a label only (N-terminal biotin on a linker: ado-ado)
Sequence (Q68DX3 1073-1166): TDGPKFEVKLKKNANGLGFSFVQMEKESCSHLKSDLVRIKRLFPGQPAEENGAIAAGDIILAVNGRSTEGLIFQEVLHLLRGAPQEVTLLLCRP

Binder | pKd
PASAKGPLGV [CLDN19, Q8N6F1] | below the threshold
QFTLRHWLKV [SLC6A3, Q01959] | below the threshold

target: GORASP1, Q9BQQ3; test: holdup assay; parameters: key: below the threshold = too weak to quantify, mostly under pKd 3.1 to 4; settings: plain residues with an end cap or a label only (N-terminal biotin on a linker: ado-ado)
Sequence (Q9BQQ3 1-208): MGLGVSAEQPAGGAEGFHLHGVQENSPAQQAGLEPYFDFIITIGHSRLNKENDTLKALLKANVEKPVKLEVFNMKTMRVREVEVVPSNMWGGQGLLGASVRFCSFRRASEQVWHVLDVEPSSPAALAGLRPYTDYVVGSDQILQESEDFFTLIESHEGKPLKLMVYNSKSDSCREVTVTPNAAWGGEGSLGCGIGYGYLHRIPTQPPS

Binder | pKd
PASAKGPLGV [CLDN19, Q8N6F1] | below the threshold
QFTLRHWLKV [SLC6A3, Q01959] | 4.13

target: MAGI3_2, Q5TCQ9; test: holdup assay; parameters: key: below the threshold = too weak to quantify, mostly under pKd 3.1 to 4; settings: plain residues with an end cap or a label only (N-terminal biotin on a linker: ado-ado)
Sequence (Q5TCQ9 398-503): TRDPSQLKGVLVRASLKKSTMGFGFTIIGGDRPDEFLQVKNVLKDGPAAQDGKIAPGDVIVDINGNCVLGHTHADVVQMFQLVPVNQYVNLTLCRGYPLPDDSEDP

Binder | pKd
PASAKGPLGV [CLDN19, Q8N6F1] | below the threshold
QFTLRHWLKV [SLC6A3, Q01959] | below the threshold

target: T2, APBA3_1, O96018; test: holdup assay; parameters: key: below the threshold = too weak to quantify, mostly under pKd 3.1 to 4; settings: plain residues with an end cap or a label only (N-terminal biotin on a linker: ado-ado)
T2 sequence (O96018 389-490, limits assumed, looked up): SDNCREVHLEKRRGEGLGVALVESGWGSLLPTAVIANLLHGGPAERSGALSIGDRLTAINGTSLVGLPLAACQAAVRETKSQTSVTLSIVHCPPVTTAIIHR

Binder | pKd
PASAKGPLGV [CLDN19, Q8N6F1] | below the threshold
QFTLRHWLKV [SLC6A3, Q01959] | below the threshold

target: SCRIB_3, Q14160; test: holdup assay; parameters: key: below the threshold = too weak to quantify, mostly under pKd 3.1 to 4; settings: plain residues with an end cap or a label only (N-terminal biotin on a linker: ado-ado)
Sequence (Q14160 999-1103): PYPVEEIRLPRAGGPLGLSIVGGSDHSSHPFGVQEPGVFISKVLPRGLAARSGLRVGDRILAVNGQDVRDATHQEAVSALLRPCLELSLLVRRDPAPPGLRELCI

Binder | pKd
PASAKGPLGV [CLDN19, Q8N6F1] | below the threshold
QFTLRHWLKV [SLC6A3, Q01959] | 3.51

target: T3, CARD11, Q9BXL7; test: holdup assay; parameters: key: below the threshold = too weak to quantify, mostly under pKd 3.1 to 4; settings: plain residues with an end cap or a label only (N-terminal biotin on a linker: ado-ado)
T3 sequence (Q9BXL7 662-765, limits assumed, looked up): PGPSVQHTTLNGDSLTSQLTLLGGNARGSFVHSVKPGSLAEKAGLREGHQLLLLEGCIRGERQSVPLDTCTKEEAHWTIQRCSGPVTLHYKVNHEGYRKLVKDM

Binder | pKd
PASAKGPLGV [CLDN19, Q8N6F1] | below the threshold
QFTLRHWLKV [SLC6A3, Q01959] | below the threshold

target: LDB3, O75112; test: holdup assay; parameters: key: below the threshold = too weak to quantify, mostly under pKd 3.1 to 4; settings: plain residues with an end cap or a label only (N-terminal biotin on a linker: ado-ado)
Sequence (O75112 1-94): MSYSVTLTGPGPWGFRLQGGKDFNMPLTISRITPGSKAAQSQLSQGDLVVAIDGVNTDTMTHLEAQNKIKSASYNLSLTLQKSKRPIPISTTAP

Binder | pKd
PASAKGPLGV [CLDN19, Q8N6F1] | below the threshold
QFTLRHWLKV [SLC6A3, Q01959] | below the threshold

target: Inadl_9, Q8NI35; test: holdup assay; parameters: key: below the threshold = too weak to quantify, mostly under pKd 3.1 to 4; settings: plain residues with an end cap or a label only (N-terminal biotin on a linker: ado-ado)
Sequence (Q8NI35 1530-1615): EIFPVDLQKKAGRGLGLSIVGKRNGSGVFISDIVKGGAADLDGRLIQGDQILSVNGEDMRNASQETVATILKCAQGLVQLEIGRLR

Binder | pKd
PASAKGPLGV [CLDN19, Q8N6F1] | below the threshold
QFTLRHWLKV [SLC6A3, Q01959] | below the threshold

target: DLG2_2, Q15700; test: holdup assay; parameters: key: below the threshold = too weak to quantify, mostly under pKd 3.1 to 4; settings: plain residues with an end cap or a label only (N-terminal biotin on a linker: ado-ado)
Sequence (Q15700 189-283): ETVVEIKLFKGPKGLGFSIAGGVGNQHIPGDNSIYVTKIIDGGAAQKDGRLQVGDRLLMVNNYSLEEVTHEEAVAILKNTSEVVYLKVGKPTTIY

Binder | pKd
PASAKGPLGV [CLDN19, Q8N6F1] | below the threshold
QFTLRHWLKV [SLC6A3, Q01959] | below the threshold

target: PTPN3, P26045; test: holdup assay; parameters: key: below the threshold = too weak to quantify, mostly under pKd 3.1 to 4; settings: plain residues with an end cap or a label only (N-terminal biotin on a linker: ado-ado)
Sequence (P26045 505-587): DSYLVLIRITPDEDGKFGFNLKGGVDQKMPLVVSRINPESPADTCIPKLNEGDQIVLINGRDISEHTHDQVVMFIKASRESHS

Binder | pKd
PASAKGPLGV [CLDN19, Q8N6F1] | below the threshold
QFTLRHWLKV [SLC6A3, Q01959] | below the threshold

target: T4, ARHGAP21, Q5T5U3; test: holdup assay; parameters: key: below the threshold = too weak to quantify, mostly under pKd 3.1 to 4; settings: plain residues with an end cap or a label only (N-terminal biotin on a linker: ado-ado)
T4 sequence (Q5T5U3 45-169, limits assumed, looked up): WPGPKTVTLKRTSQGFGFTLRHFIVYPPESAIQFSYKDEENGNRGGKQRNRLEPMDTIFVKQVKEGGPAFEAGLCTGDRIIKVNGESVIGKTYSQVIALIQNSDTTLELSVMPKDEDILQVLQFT

Binder | pKd
PASAKGPLGV [CLDN19, Q8N6F1] | 3.98
QFTLRHWLKV [SLC6A3, Q01959] | 4.09

target: ARHGEF12, Q9NZN5-2; test: holdup assay; parameters: key: below the threshold = too weak to quantify, mostly under pKd 3.1 to 4; settings: plain residues with an end cap or a label only (N-terminal biotin on a linker: ado-ado)
Sequence (Q9NZN5 other isoform, or with tags, fused parts or gaps): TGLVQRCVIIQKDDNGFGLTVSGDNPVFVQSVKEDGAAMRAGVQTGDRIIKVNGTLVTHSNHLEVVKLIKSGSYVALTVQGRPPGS

Binder | pKd
PASAKGPLGV [CLDN19, Q8N6F1] | below the threshold
QFTLRHWLKV [SLC6A3, Q01959] | below the threshold

target: T5, RADIL, Q96JH8; test: holdup assay; parameters: key: below the threshold = too weak to quantify, mostly under pKd 3.1 to 4; settings: plain residues with an end cap or a label only (N-terminal biotin on a linker: ado-ado)
T5 sequence (Q96JH8 971-1071, limits assumed, looked up): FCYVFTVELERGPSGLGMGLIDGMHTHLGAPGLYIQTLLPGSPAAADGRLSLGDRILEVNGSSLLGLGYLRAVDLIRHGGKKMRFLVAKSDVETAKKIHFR

Binder | pKd
PASAKGPLGV [CLDN19, Q8N6F1] | below the threshold
QFTLRHWLKV [SLC6A3, Q01959] | 4.42

target: T6, NHERF3_4, Q5T2W1; test: holdup assay; parameters: key: below the threshold = too weak to quantify, mostly under pKd 3.1 to 4; settings: plain residues with an end cap or a label only (N-terminal biotin on a linker: ado-ado)
T6 sequence (Q5T2W1 373-468, limits assumed, looked up): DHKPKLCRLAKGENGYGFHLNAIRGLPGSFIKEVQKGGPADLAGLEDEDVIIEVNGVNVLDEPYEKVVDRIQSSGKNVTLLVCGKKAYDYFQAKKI

Binder | pKd
PASAKGPLGV [CLDN19, Q8N6F1] | below the threshold
QFTLRHWLKV [SLC6A3, Q01959] | 3.74

target: LNX1_2, Q8TBB1; test: holdup assay; parameters: key: below the threshold = too weak to quantify, mostly under pKd 3.1 to 4; settings: plain residues with an end cap or a label only (N-terminal biotin on a linker: ado-ado)
Sequence (Q8TBB1 371-470): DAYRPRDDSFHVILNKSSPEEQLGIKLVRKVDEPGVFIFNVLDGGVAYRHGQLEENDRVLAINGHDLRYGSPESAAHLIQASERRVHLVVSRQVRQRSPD

Binder | pKd
PASAKGPLGV [CLDN19, Q8N6F1] | below the threshold
QFTLRHWLKV [SLC6A3, Q01959] | 3.84

target: T7, MPP7, Q5T2T1; test: holdup assay; parameters: key: below the threshold = too weak to quantify, mostly under pKd 3.1 to 4; settings: plain residues with an end cap or a label only (N-terminal biotin on a linker: ado-ado)
T7 sequence (Q5T2T1 134-230, limits assumed, looked up): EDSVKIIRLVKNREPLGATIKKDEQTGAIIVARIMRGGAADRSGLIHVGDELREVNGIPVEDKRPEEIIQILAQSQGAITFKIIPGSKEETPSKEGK

Binder | pKd
PASAKGPLGV [CLDN19, Q8N6F1] | below the threshold
QFTLRHWLKV [SLC6A3, Q01959] | below the threshold

target: MAGI1_1, Q96QZ7; test: holdup assay; parameters: key: below the threshold = too weak to quantify, mostly under pKd 3.1 to 4; settings: plain residues with an end cap or a label only (N-terminal biotin on a linker: ado-ado)
Sequence (Q96QZ7 1-106): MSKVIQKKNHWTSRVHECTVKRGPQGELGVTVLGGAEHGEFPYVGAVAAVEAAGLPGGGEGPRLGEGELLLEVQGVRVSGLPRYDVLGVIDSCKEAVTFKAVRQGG

Binder | pKd
PASAKGPLGV [CLDN19, Q8N6F1] | below the threshold
QFTLRHWLKV [SLC6A3, Q01959] | below the threshold

target: LNX1_1, Q8TBB1; test: holdup assay; parameters: key: below the threshold = too weak to quantify, mostly under pKd 3.1 to 4; settings: plain residues with an end cap or a label only (N-terminal biotin on a linker: ado-ado)
Sequence (Q8TBB1 261-371): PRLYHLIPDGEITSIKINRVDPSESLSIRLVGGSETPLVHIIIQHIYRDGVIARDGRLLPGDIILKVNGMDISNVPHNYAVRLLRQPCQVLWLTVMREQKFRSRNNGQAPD

Binder | pKd
PASAKGPLGV [CLDN19, Q8N6F1] | below the threshold
QFTLRHWLKV [SLC6A3, Q01959] | below the threshold

target: FRMPD4, Q14CM0; test: holdup assay; parameters: key: below the threshold = too weak to quantify, mostly under pKd 3.1 to 4; settings: plain residues with an end cap or a label only (N-terminal biotin on a linker: ado-ado)
Sequence (Q14CM0 67-160): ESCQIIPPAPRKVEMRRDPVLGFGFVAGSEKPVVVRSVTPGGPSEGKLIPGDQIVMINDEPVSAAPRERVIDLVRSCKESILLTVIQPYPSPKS

Binder | pKd
PASAKGPLGV [CLDN19, Q8N6F1] | below the threshold
QFTLRHWLKV [SLC6A3, Q01959] | below the threshold

target: NOS1, P29475; test: holdup assay; parameters: key: below the threshold = too weak to quantify, mostly under pKd 3.1 to 4; settings: plain residues with an end cap or a label only (N-terminal biotin on a linker: ado-ado)
Sequence (P29475 9-101): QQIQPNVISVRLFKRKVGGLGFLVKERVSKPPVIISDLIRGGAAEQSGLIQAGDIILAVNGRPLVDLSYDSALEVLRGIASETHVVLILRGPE

Binder | pKd
PASAKGPLGV [CLDN19, Q8N6F1] | below the threshold
QFTLRHWLKV [SLC6A3, Q01959] | below the threshold

target: T8, DVL3, Q92997; test: holdup assay; parameters: key: below the threshold = too weak to quantify, mostly under pKd 3.1 to 4; settings: plain residues with an end cap or a label only (N-terminal biotin on a linker: ado-ado)
T8 sequence (Q92997 244-331, limits assumed, looked up): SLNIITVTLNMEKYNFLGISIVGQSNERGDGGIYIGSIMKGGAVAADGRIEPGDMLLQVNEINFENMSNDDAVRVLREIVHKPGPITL

Binder | pKd
PASAKGPLGV [CLDN19, Q8N6F1] | below the threshold
QFTLRHWLKV [SLC6A3, Q01959] | below the threshold
